From patent US20180362596

Molecular target: human plasmin (UniProt P00747)
Sequence (P00747 97-810): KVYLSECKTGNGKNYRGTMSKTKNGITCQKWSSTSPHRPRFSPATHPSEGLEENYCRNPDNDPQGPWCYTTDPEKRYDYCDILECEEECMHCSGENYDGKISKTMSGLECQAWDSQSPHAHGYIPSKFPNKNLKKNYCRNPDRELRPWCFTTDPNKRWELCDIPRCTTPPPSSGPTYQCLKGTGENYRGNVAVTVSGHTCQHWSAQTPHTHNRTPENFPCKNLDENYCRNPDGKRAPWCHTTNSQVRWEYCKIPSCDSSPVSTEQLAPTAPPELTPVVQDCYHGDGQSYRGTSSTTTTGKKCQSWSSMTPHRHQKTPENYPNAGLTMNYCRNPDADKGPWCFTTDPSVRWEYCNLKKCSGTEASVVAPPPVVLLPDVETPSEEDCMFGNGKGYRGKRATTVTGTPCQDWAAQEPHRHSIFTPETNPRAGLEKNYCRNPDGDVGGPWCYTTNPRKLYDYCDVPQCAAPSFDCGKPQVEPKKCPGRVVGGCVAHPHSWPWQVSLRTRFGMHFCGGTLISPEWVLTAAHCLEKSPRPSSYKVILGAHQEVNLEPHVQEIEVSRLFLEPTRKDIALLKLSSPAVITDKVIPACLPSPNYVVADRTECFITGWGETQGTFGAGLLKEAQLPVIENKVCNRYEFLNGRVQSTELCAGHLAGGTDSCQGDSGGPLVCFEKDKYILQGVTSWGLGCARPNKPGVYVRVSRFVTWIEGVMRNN

Substance	lag in plasminogen activation activity with added plasmin
clot specific streptokinase (CSSK), FBD(4,5)-SK-FBD(4,5), expressed in E. coli	there was a progressive decrease in the lag in activity in the presence of increasing amounts of plasmin added to the reaction
clot specific streptokinase (CSSK), FBD(4,5)-SK-FBD(4,5), expressed in Pichia pastoris (pPIC9K-alpha modified CSSK/GS115), glycosylated	there was a progressive decrease in the lag in activity in the presence of increasing amounts of plasmin added to the reaction
